Data as given in patent US20250228937A1, “MEDICAMENT FOR TREATMENT AND/OR PREVENTION OF CANCER” (TORAY INDUSTRIES, INC., priority 2021, published 2025).

Molecular target: T1, CAPRIN-1 protein (Homo sapiens, UniProt Q14444)
T1 construct: made in house
T1 sequence (Q14444 1-709): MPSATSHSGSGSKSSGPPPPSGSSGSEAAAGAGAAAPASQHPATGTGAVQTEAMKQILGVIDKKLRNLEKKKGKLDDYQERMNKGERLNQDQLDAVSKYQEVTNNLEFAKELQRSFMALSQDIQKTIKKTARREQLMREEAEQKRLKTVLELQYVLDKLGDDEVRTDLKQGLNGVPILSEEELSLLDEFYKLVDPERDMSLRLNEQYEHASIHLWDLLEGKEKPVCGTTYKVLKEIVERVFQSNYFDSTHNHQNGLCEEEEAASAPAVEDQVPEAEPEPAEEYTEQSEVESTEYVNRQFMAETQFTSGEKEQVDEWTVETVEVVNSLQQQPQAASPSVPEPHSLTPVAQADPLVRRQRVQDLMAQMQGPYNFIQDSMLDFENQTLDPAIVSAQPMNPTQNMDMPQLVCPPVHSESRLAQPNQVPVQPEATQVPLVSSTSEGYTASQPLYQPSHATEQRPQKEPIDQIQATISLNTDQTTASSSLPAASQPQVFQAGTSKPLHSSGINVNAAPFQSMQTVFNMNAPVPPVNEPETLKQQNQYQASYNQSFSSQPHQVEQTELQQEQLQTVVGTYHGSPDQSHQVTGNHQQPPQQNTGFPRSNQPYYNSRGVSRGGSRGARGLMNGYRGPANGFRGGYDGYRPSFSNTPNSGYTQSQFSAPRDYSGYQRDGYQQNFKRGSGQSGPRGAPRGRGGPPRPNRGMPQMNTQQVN
Test: ELISA using CAPRIN-1 protein immobilized on a plate
Assay type: binding
Procedure: One hundred (100) μg of a human CAPRIN-1 recombinant protein produced according to Example 3 of WO2010/016526 was mixed with an MPL+TDM adjuvant (Sigma) in an amount equivalent to that of the antigen protein. The mixture was used as an antigen solution per mouse. The antigen solution was administered intraperitoneally to 6-week-old Balb/c mice (Japan SLC Inc.) and then further administered 3 times […] every week for completion of immunization. A spleen was removed on day 3 after the final immunization and then ground between two sterilized glass slides. Spleen cells were obtained by repeating the following procedure three times: washing with PBS(−) (manufactured by Nissui Pharmaceutical Co., Ltd.), centrifuging at 1500 rpm for 10 minutes, and removing supernatant. The obtained spleen cells were mixed with mouse myeloma cell SP2/0 (purchased from ATCC) at a ratio of 10:1. The PEG solution prepared by mixing 200 μl of RPMI1640 medium containing 10% FBS heated at 37° C. and 800 μl of PEG1500 (Boehringer) was added to the cells. The solution was incubated for 5 minutes for cell fusion. Centrifugation was performed at 1700 rpm for 5 minutes to remove supernatants. […] Absorbance at 450 nm and absorbance at 595 nm were measured using an absorption spectrometer. As a result, a plurality of hybridomas producing antibodies with high absorbances were selected. […]

B1: (ab): mouse monoclonal antibody against CAPRIN-1 described in WO2013/125630, heavy-chain variable region SEQ ID NO: 114, light-chain variable region SEQ ID NO: 115 (antibody, listed as Mus musculus, V domains shown)
VH: GPELVKPGASVKMSCKASGYTFTSYVMHWVKQKPGQGLEWIGYINPYNDGTKYNEKFKGKATLTSDKSSSTAYMELSSLTSEDSAVYYCARRYYYGSSGGYFDVWAQDHVRT
VL: DVQITQSPSYLAASPGETITINCRASKSISKYLAWYQEKPGKTNKLLIYSGSTLQSGIPSRFSGSGSGTDFTLTISSLEPEDFAMYYCQQHNEYPYTFGGGTKLEIKR
reactivity with CAPRIN-1 protein: exhibiting reactivity
